The subject of the data set is MS2 coat protein. Nature of the data set: apparent KD of MS2 coat protein; designed switch direction (-1 OFF switch, 1 ON switch): -1; higher = weaker reporter binding. The procedure, abridged:
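Three titration conditions were used: no input, 200 uM small-molecule ligand, and an oligonucleotide input. In each, SNAP-549-labelled MS2 coat protein was raised from 0.7 or 1.5 nM, doubling, to 3 µM over designed RNA switches transcribed on Illumina chips by stalled E. coli RNA polymerase. Curve fits of normalised cluster fluorescence gave values whose per-design median over clusters is the apparent KD.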

Setting [1] is: Eterna round: R95, input ligand: FMN 200 uM.
Where [2] appears, read: Eterna round: R95, input ligand: microRNA oligo, concentration not stated.
[3] abbreviates: Eterna round: R95, input ligand: none.
The mark [4] stands for this setting: input ligand: microRNA oligo, concentration not stated.

Regarding “AAGUACCGUCACGAUAGUGAUGGUACAACAUGUAGUGAAACAUGAGGAUCACCCAUGUCCUCAAUUGCUCGUCUUAU [Sensor 3 - 83] (puzzle: Sensor v3, turn-off variant 2)”, the “apparent KD of MS2 coat protein” value by setting is: under setting [1], 1400 nM; under setting [2], 460 nM; under setting [3], 1260 nM.

Turning to “UUGAAGUCAUCAGGAUAUAGUAUAAAAGACAUAUAUUUUUUCAAACAUGAGGAUCACCCAUGUCGCUAGAAGGGAUUAUAGAUU [JR_ExcNG2_Sub081] (Eterna round: R96, puzzle: Exclusion NG 2)”, under setting [4], the “apparent KD of MS2 coat protein” value was 34.7 nM.

Turning to “CGAGCUUUUUGCUCGUCUUACAUGAGGAUCACCCAUGUCGAGCGAGCGAGCGAGCGAAAGUUUGUUUGUUUGUUUGA [Mod of sellena 3] (Eterna round: R97, puzzle: Sensor, turn-off variant 1)”, the “apparent KD of MS2 coat protein” value runs as follows: (input ligand: FMN 200 uM) 21.4 nM; (input ligand: none) 20.4 nM.

Consider “GAUCAUGCAGGAUAUACAUUUUCCAUGAAAACAUGGUCCUCACAUGAGGAUCACCCAUGUAGAAGGGCAUGAUC [Omei Ex2 A30] (Eterna round: R97, puzzle: Exclusion 2)”, for which the “apparent KD of MS2 coat protein” value turned out to be 37.6 nM (input ligand: FMN 200 uM) and 855 nM (input ligand: none).

In the case of “GACCCUGCCUAGGAUAUGCAUCUGUCAGUCAGGGCAGAAGGAGGCACAUGAGGAUCACCCAUGUGACCCGGCGU [EX6 C.3] (Eterna round: R97, puzzle: Exclusion 6)”, the “apparent KD of MS2 coat protein” value reads like this: (input ligand: FMN 200 uM) 14.6 nM; (input ligand: none) 14.5 nM.

As for “AAGCUGAAGUGCCCGUCUUACAUGAGGAUCACCCAUGUUUUGCUGAAGCGAAUACUCGCAUUAGCAAGUGAGGUCCA [Eternabot (Original) Solution 9] (Eterna round: R97, puzzle: Sensor, turn-off variant 1)”, the “apparent KD of MS2 coat protein” value runs as follows: (input ligand: FMN 200 uM) 68.2 nM; (input ligand: none) 53.9 nM.

In the case of “AGCUAGAUAGGAUAUGCCCGGGAUAACAUGAGGAUCACCCAUGUGACCGAAUCAAAUCCAGCAGAAGGGUUUGGGA [Mod of ViennaUCT 13 - Jieux - Exclusion 5] (Eterna round: R97, puzzle: Exclusion 5)”, the “apparent KD of MS2 coat protein” value (input ligand: FMN 200 uM) stood at 22 nM and the “apparent KD of MS2 coat protein” value (input ligand: none) is 18.6 nM.

Take “ACAAGCUUUUCGAUCCUCCACAUGAGGAUCACCCAUGUGCUCGACUUGUAAAGUACUAUCACGAAAGUGAUAGUACA [Sensor, turn off variant 1 v.1] (Eterna round: R97, puzzle: Sensor, turn-off variant 1)”: the “apparent KD of MS2 coat protein” value is, setting by setting: (input ligand: FMN 200 uM) 455 nM; (input ligand: none) 629 nM.

With “GAGUUAGCGUGAGGAAUAUACAUGAGGAUCACCCAUGUUAGCUAAUAUAUUGCUCGUCUUAUAACAACAAUUAACUG [Mod JX-Electric-eye] (Eterna round: R97, puzzle: Sensor, turn-off variant 1)”, the “apparent KD of MS2 coat protein” value (input ligand: FMN 200 uM) amounted to 14.2 nM and the “apparent KD of MS2 coat protein” value (input ligand: none) is 15.9 nM.

With “AAUAAUUGUGACAUGGGCGACAUGAGGAUCACCCAUGUUACAAGCUUGUUGCUCGUCUUAUAAUUAACCCAUGUCAC [LRO Sensor-off var1-22 mod of Stov1-13-A1 by Brourd] (Eterna round: R97, puzzle: Sensor, turn-off variant 1)”, the “apparent KD of MS2 coat protein” value came out at 16.3 nM (input ligand: FMN 200 uM) and 15.2 nM (input ligand: none).

In the case of “CUUUUGUGAGGAUAUUAGUAGUAAAUAAUUAAAAUUAUUACUGAGAAGGCACAUGAGGAUCACCCAUGUAACUC [JR_Ex4_Sub027] (Eterna round: R97, puzzle: Exclusion 4)”, the “apparent KD of MS2 coat protein” value reads like this: (input ligand: FMN 200 uM) 400 nM; (input ligand: none) 49.9 nM.

In the case of “AUGUACCGGUGAGGAUAUUUUUAAUAGAACUUUAUGAUAUACAUGAGGAUCACCCAUGUUACUUUAAAGAAGGCAUCGGAUUAA [Mat - Exclusion NG 2 - Mod of JL - D85] (Eterna round: R96, puzzle: Exclusion NG 2)”, the “apparent KD of MS2 coat protein” value under setting [4] was 13.8 nM.

“AACCUAUGAGGAUAUACAUGAGGAUCACCCAUGUGUGAGCGUAUCUCAUCACCAAAUUGUAGAAGGCAUGGCGG [Eternabot (L1) Solution 38] (Eterna round: R97, puzzle: Exclusion 3)”: the “apparent KD of MS2 coat protein” value reads like this: (input ligand: FMN 200 uM) 68.3 nM; (input ligand: none) 41.4 nM.

As to “GGCAUAAACGAGGAUAUCGUUACGGAAACGUAACGAGAAGGUGUAACAUGAGGAUCACCCAUGUUCCUCAAGCC [Mat - Exclusion 6 - Eli Mod - D59] (Eterna round: R96, puzzle: Exclusion 6)”, the “apparent KD of MS2 coat protein” value by setting is: (input ligand: FMN 200 uM) 36.8 nM; under setting [4], 29.8 nM; (input ligand: none) 38 nM.

With “AAACAGGAUGUAAGGAUAUCCAAGUGCUAAGCACGGGAGAAGGUACAUGAGGAUCACCCAUGUGGUCUUCCAAU [Quesardi] (Eterna round: R97, puzzle: Brourd's mod of Exclusion 4)”, the “apparent KD of MS2 coat protein” value reads like this: (input ligand: FMN 200 uM) 253 nM; (input ligand: none) 120 nM.

Take “UUUAUAAUUUCAAUCUUCGCUGGCAAACUUACGCCAGCCACAUGAGGAUCACCCAUGUUUUUUGUUCGUUUUACUCU [Tetevea] (puzzle: Sensor v3, turn-off variant 2)”: the “apparent KD of MS2 coat protein” value runs as follows: under setting [1], 18 nM; under setting [2], 64 nM; under setting [3], 22.5 nM.

On to “CGCCGAGUGUUAGGAUAUCACAAGCAUCAGCGGUGAGAAGGAACAUGAGGAUCACCCAUGUACUGUCCCAUAAGGACAGGUUUC [Geestiza] (Eterna round: R96, puzzle: Exclusion NG 1)”, for which the “apparent KD of MS2 coat protein” value reads like this: (input ligand: FMN 200 uM) 82.7 nM; under setting [4], 40.9 nM; (input ligand: none) 60.8 nM.

On to “AAUUAUUGAUGAGGAUAUUGUGGUGAAACACGACGAGAAGGCAUAUGUCACAUGAGGAUCACCCAUGUGAGCCUUGUGGAUAUA [Ex NG1 #65] (Eterna round: R96, puzzle: Exclusion NG 1)”, for which the “apparent KD of MS2 coat protein” value under setting [4] was found to be 43.5 nM.

With “UUAUUAUAUGAAGGAUAUACUUAACAUGAGGAUCACCCAUGUGGUGUUGUGAGUGAGUGAGUUUAGUAGAAGGUCAAGUAUUUU [JMF's solution 51] (Eterna round: R96, puzzle: Exclusion NG 2)”, the “apparent KD of MS2 coat protein” value runs as follows: (input ligand: FMN 200 uM) 417 nM; under setting [4], 494 nM; (input ligand: none) 341 nM.

With “AAUCCACAUGAGGAUCACCCAUGUGAGGAUAUGUCCAUAUUCGGCAAAUCGGAUAUGGACAGAAGGCACAUAAA [JR_Exclusion1_Sub013] (puzzle: Exclusion 1)”, the “apparent KD of MS2 coat protein” value under setting [2] is 28.3 nM.

“GGUUGACAUGAGGAUCACCCAUGUGAGGAUAUGCGAGAGAAAAAAGUGAGGAAGUUUUGCAGAAGGCGCUGUCG [salish99-ex1_r3_007] (puzzle: Exclusion 1)”: the “apparent KD of MS2 coat protein” value is 43.5 nM under setting [1], 87.5 nM under setting [2] and 56 nM under setting [3].

Regarding “UUAAUGUGAGGAUAUGGUAAAGAUAAGAUGAUGAAAGAACUCCAGAAGGCACAUGAGGAUCACCCAUGUAGAUG [JL-ex4-2.14 Jieux mod] (puzzle: Exclusion 4)”, the “apparent KD of MS2 coat protein” value under setting [2] turned out to be 35.6 nM.

Take “GGUGUGAGGCAGGAUAUGCAAUAAGUAAGUAAUGCAGAAGGGUCUACAUGAGGAUCACCCAUGUGUGCGGUAGA [Ex6 #2] (Eterna round: R97, puzzle: Exclusion 6)”: the “apparent KD of MS2 coat protein” value is, setting by setting: (input ligand: FMN 200 uM) 202 nM; (input ligand: none) 109 nM.

The values above are taken from the supplement of paper PMC9170038.
